The results in this text go back to patent publication US20140322218A1 (Amgen, published 2014).

Holding throughout (assay): FACS, transfected 293T
Experiment [1] concerns the target T1, huCDH19(44-249)::muCDH19(248-770), Flag-tagged, on 293T cells (human/mouse chimera).
T1 construct: also called Hu EC1-2; C137896
Excerpt: (§1) The experiment included assaying the anti-CDH19 antibodies against mouse Cadherin19 to determine suitability for binning on these human/mouse chimeras.

Experiment [2] deals with T2, huCDH19(44-772), Flag-tagged, on 293T cells (human, UniProt Q9H159 44-772).
T2 construct: Expressed with native leader (1-43) followed by a Flag tag; leader left out; also called Hu EC1-5
Excerpt: as §1

For experiment [3], the target named is T3, huCDH19(44-141)::muCDH19(140-770), Flag-tagged, on 293T cells (human/mouse chimera).
T3 construct: also called Hu EC1
Excerpt: as §1

B1: hu anti-<huCDH19> 25F8.1 VH::huIgG1z / 25F8.1 (1-235)(K45Q,S102A) VL::huLLC-C2 (Ab ID 14094) (antibody, V domains shown)
VH: QVQLVQSGAEVKKPGASVKVSCKASGYTFTSYYIHWVRQAPGQGLEWMGIINPSGGSTRYAQKFQGRVTMTRDTSTSTVFMELSSLRSEDTAVYYCARGGIQLWLHFDYWGQGTLVTVSS
VL: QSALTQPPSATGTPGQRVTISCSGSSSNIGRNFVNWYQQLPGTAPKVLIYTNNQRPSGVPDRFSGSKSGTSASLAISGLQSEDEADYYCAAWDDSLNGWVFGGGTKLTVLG
notes: Engineered variant of 25F8
In the case of B1, the binding result in experiment [1], in experiment [2] and in experiment [3] was “binds” in each case.

B2: hu anti-<huCDH19> 26D1.1 (1-469)(R27G,G82R) VH::huIgG1z / 26D1.1 (1-235)(H1Q,S7P) VL::huLLC-C2 (Ab ID 14088) (antibody, V domains shown)
VH: QVQLVQSGAEVKKPGASVKVSCKASGYTFTSYYMSWVRQAPGQGLEWMGIIHPSGGDTTYAQKFQGRVTMTRDTSTSTVYMELSSLRSEDTAVYYCARGGIKLWLHFDYWGQGTLVTVSS
VL: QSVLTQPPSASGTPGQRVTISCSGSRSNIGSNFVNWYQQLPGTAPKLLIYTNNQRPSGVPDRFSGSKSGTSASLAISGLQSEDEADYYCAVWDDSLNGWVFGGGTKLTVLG
notes: Engineered variant of 26D1
On to B2, for which the binding result in experiment [1], in experiment [2] and in experiment [3] was “binds” each time.

B3: hu anti-<huCDH19> 4A9 VH::huIgG1z / 4A9 (1-239)(F47L) VL::huLLC-C1 (Ab ID 14056) (antibody, V domains shown)
VH: QVQLQESGPGLVKPSETLSLTCTVSGGSISGYYWSWIRQPPGKGLEWFAYFSYSGSTNYNPSLKSRVTLSVDTSKNQFSLKLSSVTAADTAVYYCARNWAFHFDFWGQGTLVTVSS
VL: QSVLTQPPSVSGAPGQRVTISCTGSSSNIGTGYAVHWYQQLPGTAPKLLIYGNNNRPSGVPDRFSGSKSGTSASLAITGLQAEDEADYYCQSYDSRLSGWVFGGGTKLTVLG
notes: Engineered variant of 4A9
Regarding B3, the binding result in experiment [1], in experiment [2] and in experiment [3] was “binds” throughout.

B4: hu anti-<huCDH19> 4A9 (1-468)(F55I,A56G) VH::huIgG1z / 4A9 (1-239)(F47L) VL::huLLC-C1 (Ab ID 14057) (antibody, V domains shown)
VH: QVQLQESGPGLVKPSETLSLTCTVSGGSISGYYWSWIRQPPGKGLEWIGYFSYSGSTNYNPSLKSRVTLSVDTSKNQFSLKLSSVTAADTAVYYCARNWAFHFDFWGQGTLVTVSS
VL: QSVLTQPPSVSGAPGQRVTISCTGSSSNIGTGYAVHWYQQLPGTAPKLLIYGNNNRPSGVPDRFSGSKSGTSASLAITGLQAEDEADYYCQSYDSRLSGWVFGGGTKLTVLG
notes: Engineered variant of 4A9
For B4, the binding result in experiment [1], in experiment [2] and in experiment [3] was “binds” throughout.

B5: hu anti-<huCDH19> 4B10 (1-471)(R17G,D61E,D72E) VH::huIgG1z / 4B10 (1-236)(H45Q,A90T) VL::huKLC (Ab ID 14055) (antibody, V domains shown)
VH: QVQLVESGGGVVQPGGSLRLSCAASGFTFSSYDMHWVRQAPGKGLEWVAVISYEGTNEYYAESVKGRFTISRDTSKNTLYLQMNSLRAEDTAVYYCARERYFDWSFDYWGQGTLVSVSS
VL: EIVLTQSPGTLSLSPGERATLSCRASQSVSNTYLAWYQQRPGQAPRLLIYGASSRATGIPDRFSGSGSGTDFTLTISSLEPEDFAVYYCQQYSNSWTFGQGTKVEIKR
notes: Engineered variant of 4B10
Regarding B5, the binding result in experiment [2] is “binds”.
